Laboratory results reported in paper PMC6828549 (Nature structural & molecular biology, 2019).

Target: T1, His6-Nxf2 (full length), recombinant from insect cells (Drosophila melanogaster, UniProt Q9VV73 1-841)
T1 sequence: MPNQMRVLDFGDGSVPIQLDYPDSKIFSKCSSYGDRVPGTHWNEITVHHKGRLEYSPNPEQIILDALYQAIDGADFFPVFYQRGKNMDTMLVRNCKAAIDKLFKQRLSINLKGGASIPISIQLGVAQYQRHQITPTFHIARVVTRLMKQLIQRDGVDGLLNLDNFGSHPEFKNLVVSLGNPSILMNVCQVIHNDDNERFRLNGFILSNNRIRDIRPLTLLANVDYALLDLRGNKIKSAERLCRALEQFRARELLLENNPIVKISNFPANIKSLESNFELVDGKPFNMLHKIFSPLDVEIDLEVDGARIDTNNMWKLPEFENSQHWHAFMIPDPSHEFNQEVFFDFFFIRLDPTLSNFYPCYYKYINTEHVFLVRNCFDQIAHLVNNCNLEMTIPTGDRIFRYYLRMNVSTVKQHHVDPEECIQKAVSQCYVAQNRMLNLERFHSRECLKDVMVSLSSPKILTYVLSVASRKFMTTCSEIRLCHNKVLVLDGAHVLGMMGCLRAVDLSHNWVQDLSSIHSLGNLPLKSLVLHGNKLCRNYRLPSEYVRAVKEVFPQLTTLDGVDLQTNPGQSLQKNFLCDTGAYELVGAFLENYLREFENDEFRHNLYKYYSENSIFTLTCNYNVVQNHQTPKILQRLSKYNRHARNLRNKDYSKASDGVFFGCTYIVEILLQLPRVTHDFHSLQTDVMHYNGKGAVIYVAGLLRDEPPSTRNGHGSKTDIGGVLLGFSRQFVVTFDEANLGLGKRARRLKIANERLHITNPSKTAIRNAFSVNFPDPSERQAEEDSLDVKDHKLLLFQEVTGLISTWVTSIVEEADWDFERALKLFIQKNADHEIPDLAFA
Experiment: pull-down + SEC

B1: Strep-tagged Panoramix fragment (263–446) (domain or fragment)
chain: ASSQNESSKERKLRDTELDYVPVRPDEHFIRPIKFSNLIERRPPQVEFNTVNLSKADKRSLAVARAELVLEQIQQKANKEEPPEFHMVDTICKLPVNESFRNQDCFENPSPICNNMNVVYKFNSTPGTRIDLSKWGLETVPEATKRLLRLLGIDVARLKELQSTVKPSQRILKLKKEQLEQGLA
binding result: binds
